Source: PMC4621360 (2015)

Target: FSFG-K (single FSFG site) (Saccharomyces cerevisiae, UniProt P14907)
Assay: NMR

Kd: > 216 µM
B1: Kap95 (protein)
chain: STAEFAQLLENSILSPDQNIRLTSETQLKKLSNDNFLQFAGLSSQVLIDENTKLEGRILAALTLKNELVSKDSVKTQQFAQRWITQVSPEAKNQIKTNALTALVSIEPRIANAAAQLIAAIADIELPHGAWPELMKIMVDNTGAEQPENVKRASLLALGYMCESADPQSQALVSSSNNILIAIVQGAQSTETSKAVRLAALNALADSLIFIKNNMEREGERNYLMQVVCEATQAEDIEVQAAAFGCLCKIMSLYYTFMKPYMEQALYALTIATMKSPNDKVASMTVEFWSTICEEEIDIAYELAQFPQSPLQSYNFALSSIKDVVPNLLNLLTRQNEDPEDDDWNVSMSAGACLQLFAQNCGNHILEPVLEFVEQNITADNWRNREAAVMAFGSIMDGPDKVQRTYYVHQALPSILNLMNDQSLQVKETTAWCIGRIADSVAESIDPQQHLPGVVQACLIGLQDHPKVATNCSWTIINLVEQLAEATPSPIYNFYPALVDGLIGAANRIDNEFNARASAFSALTTMVEYATDTVAETSASISTFVMDKLGQTMSVDENQLTLEDAQSLQELQSNILTVLAAVIRKSPSSVEPVADMLMGLFFRLLEKKDSAFIEDDVFYAISALAASLGKGFEKYLETFSPYLLKALNQVDSPVSITAVGFIADISNSLEEDFRRYSDAMMNVLAQMISNPNARRELKPAVLSVFGDIASNIGADFIPYLNDIMALCVAAQNTKPENGTLEALDYQIKVLEAVLDAYVGIVAGLHDKPEALFPYVGTIFQFIAQVAEDPQLYSEDATSRAAVGLIGDIAAMFPDGSIKQFYGQDWVIDYIKRTRSGQLFSQATKDTARWAREQQKRQLSL
